Source: patent publication US20210346432A1

Tests used:
ET140-p25 (human) = target: T1, ET140-p25 (human); assay: peptide ELISA on streptavidin plate, antibody 1 ug/mL
T1 sequence (peptide, N-terminal biotin): SGSGLRCSSNTPPLTCQRY

ET140-p26 (human) = target: T2, ET140-p26 (human); assay: as above
T2 sequence (peptide, N-terminal biotin): SGSGRCSSNTPPLTCQRYC

In the case of 901mIgG (antibody), the A450 (ET140-p25 (human)) is reported as 0.492 and the A450 (ET140-p26 (human)) is reported as 0.162.
